The supplement of paper PMC10724198
± gives the standard deviation of the averaged measurements.
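Also: PSI is a weighted mean of sequencing reads over stability bins, variants kept only with over 10 reads, mCherry proximal and sfGFP distal, peptide attached via GGGS linker.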

What follows are sequences tested on Saccharomyces cerevisiae (assay: protein stability index of tFT-peptide fusion (C-terminal peptide) (PSI (0-1 scale)); higher = more stable (slower turnover)). Conditions: genetic background: wild type; temperature: 30 C.
With PSPPPPTVPHPP the protein stability index was 0.6779 ± 0.00096. EGGESRGKGYRS gave a protein stability index of 0.691 ± 0.025. Sequence FLWAPRWFCVGH has a protein stability index of 0.651 ± 0.041. Sequence PPLSCSPPLAPL has a protein stability index of 0.695 ± 0.019. Work on LGGGGRGFAGRK yielded a protein stability index of 0.618 ± 0.029. EKVWTLTGLSHL gave a protein stability index of 0.722 ± 0.04. PSPSPSPPLPPP gave a protein stability index of 0.652 ± 0.0077. PPPPFSPPPPSA gave a protein stability index of 0.7 ± 0.04. Work on GQSSYFRRFRVG yielded a protein stability index of 0.6185 ± 0.0031. For APTRPPRPNLFH, the protein stability index was 0.625 ± 0.018. IKKQTKTKKKEF showed a protein stability index of 0.65 ± 0.058. Sequence EKGAEGDHGEVR has a protein stability index of 0.678 ± 0.017. PSTHPPTLPRPC was tested, and the protein stability index was 0.712 ± 0.024. For IRETTYSRPFQL, the protein stability index was 0.695 ± 0.05. PPARPDCGIRTP gave a protein stability index of 0.672 ± 0.026. CMVRGCFNHCGW showed a protein stability index of 0.669 ± 0.024. Work on GFCSGGVFVEWV yielded a protein stability index of 0.754 ± 0.065. RKLKQGIVSKKK showed a protein stability index of 0.66 ± 0.052. In the case of PPVPPPPRLPRP, the protein stability index is reported as 0.727 ± 0.019. In the case of MPFTSDAAALAP, the protein stability index is reported as 0.689 ± 0.03. QHVDRFVGVNRE gave a protein stability index of 0.715 ± 0.051. RNEDYQKKRKGK gave a protein stability index of 0.701 ± 0.022. KLSIWRADKDLE showed a protein stability index of 0.688 ± 0.015. In the case of WGGYLISLNLYN, the protein stability index is reported as 0.561 ± 0.025. For RKEGRGEEPEKG, the protein stability index was 0.65 ± 0.049. In the case of PARPNMHTTPAD, the protein stability index is reported as 0.646 ± 0.02. HQKQCRSNRHRG gave a protein stability index of 0.657 ± 0.05. With GGGGGGRLEGGA the protein stability index was 0.66 ± 0.07. With REGRTRGTAAER the protein stability index was 0.679 ± 0.027. Work on LLPSPSYPLSPS yielded a protein stability index of 0.751 ± 0.037. For VDLGLYGYTDIW, the protein stability index was 0.685 ± 0.035. In the case of RQWAISRRWVVR, the protein stability index is reported as 0.562 ± 0.021. With VAWYALPWCVLI the protein stability index was 0.6211 ± 0.0041. In the case of GPWAGVRAEVKA, the protein stability index is reported as 0.6505 ± 0.0047. For AAPPPAPPPPPR, the protein stability index was 0.694 ± 0.0082. KDIVSEPKVKRE gave a protein stability index of 0.744 ± 0.012. FITRPYKNIKNR showed a protein stability index of 0.702 ± 0.031. AWEPGGVVAVLL showed a protein stability index of 0.621 ± 0.14. For KNRENNTKIEIQ, the protein stability index was 0.661 ± 0.014. GSMCYRTVTNLR showed a protein stability index of 0.593 ± 0.017. For GGRVKPRGVGVG, the protein stability index was 0.648 ± 0.016. Sequence IFIPRFDLPSFP has a protein stability index of 0.788 ± 0.16. PSPPAPFPVCLL showed a protein stability index of 0.617 ± 0.011. PPPRSPPAPPPP showed a protein stability index of 0.774 ± 0.052. Work on HRRASYVLSPLS yielded a protein stability index of 0.7413 ± 0.0073. PPASLFFPPLSP was tested, and the protein stability index was 0.756 ± 0.13. For PPPPPRLPPRPP, the protein stability index was 0.6152 ± 0.0052. GGGWGRAYSWWV gave a protein stability index of 0.705 ± 0.012. For GGGAGGEAVRVW, the protein stability index was 0.655 ± 0.025. WSSTTISVQRGL showed a protein stability index of 0.7 ± 0.089. Sequence RSPLPHPPPHSY has a protein stability index of 0.612 ± 0.054. Sequence EKKRQKKQKTGK has a protein stability index of 0.67136 ± 0.00051. For ARSLPSPTLPFL, the protein stability index was 0.697 ± 0.058. In the case of CASACPPPPPAT, the protein stability index is reported as 0.726 ± 0.019. TKKSKRKREQAE showed a protein stability index of 0.68 ± 0.026. PRPISLFPLPPP showed a protein stability index of 0.693 ± 0.057. For NTEKNKRDRYQK, the protein stability index was 0.722 ± 0.019. Work on VRRRRVPSEATR yielded a protein stability index of 0.667 ± 0.044. KSAPAIRASRPR was tested, and the protein stability index was 0.715 ± 0.0064. For GGAWGHCSHEWS, the protein stability index was 0.6882 ± 0.0052. With PLLPSPPLPCFF the protein stability index was 0.765 ± 0.029. AFNPLPPFPLGF showed a protein stability index of 0.706 ± 0.034. PQDYITTCQHPT showed a protein stability index of 0.651 ± 0.079. In the case of GGGGAGGRRGTQ, the protein stability index is reported as 0.654 ± 0.0077. In the case of GAFKSRAGGGSG, the protein stability index is reported as 0.621 ± 0.093. With YCTAGVCVKAGR the protein stability index was 0.765 ± 0.027. With PHEKDKNMGKQK the protein stability index was 0.702 ± 0.085. In the case of GFHCRLRVSTFG, the protein stability index is reported as 0.585 ± 0.019. PSLPPSPISPPH gave a protein stability index of 0.588 ± 0.013. RKLNRKEKLQLT was tested, and the protein stability index was 0.646 ± 0.051. Sequence RNKKIKKKKGRN has a protein stability index of 0.701 ± 0.069. FSASSSLSPFPL was tested, and the protein stability index was 0.707 ± 0.052. Work on PPNPLPPAFTPP yielded a protein stability index of 0.715 ± 0.027. TPQTTQIKNEKH gave a protein stability index of 0.789 ± 0.14. With PFPALQHAISRE the protein stability index was 0.699 ± 0.066. HRVVAATKSPSA was tested, and the protein stability index was 0.727 ± 0.064. Sequence PVINPSCIVMMW has a protein stability index of 0.65 ± 0.04. Work on LALYISFGLSLI yielded a protein stability index of 0.526 ± 0.031. Work on RGGAGSWDWEAG yielded a protein stability index of 0.707 ± 0.028. FPCRSPKLYPPL showed a protein stability index of 0.655 ± 0.011. With WFPPLPPPPPPS the protein stability index was 0.734 ± 0.028. CVDAFLVRLVFM showed a protein stability index of 0.568 ± 0.013. Work on GFGSSSFLCFSR yielded a protein stability index of 0.669 ± 0.042. In the case of TISHYSLAPTQI, the protein stability index is reported as 0.695 ± 0.02. With FHARVEKQFMVM the protein stability index was 0.489 ± 0.031. Work on PHYRYLHPSPPP yielded a protein stability index of 0.704 ± 0.0073. With GCGGVEAVGGVC the protein stability index was 0.586 ± 0.025. In the case of RLLLRNAASSSS, the protein stability index is reported as 0.691 ± 0.042. In the case of AILFGSSSWVVV, the protein stability index is reported as 0.659 ± 0.032. VCCSDSLCFVVS was tested, and the protein stability index was 0.601 ± 0.052. Work on IRRNRGLKWNVN yielded a protein stability index of 0.613 ± 0.068. Work on NKKTYHRPTKNY yielded a protein stability index of 0.693 ± 0.015. In the case of AFLLAVIRSSCV, the protein stability index is reported as 0.55 ± 0.031. With TRCSIPSSLSLM the protein stability index was 0.677 ± 0.016. Sequence VRWSEVGMGVWR has a protein stability index of 0.708 ± 0.014. For GLSVVFRIPPGS, the protein stability index was 0.735 ± 0.043. In the case of FLTAGRLYDGRV, the protein stability index is reported as 0.6489 ± 0.0032. For PPISVIRKPTVL, the protein stability index was 0.667 ± 0.066. RWRFSARSRLSR gave a protein stability index of 0.642 ± 0.013. For WHGLLEWLAWRT, the protein stability index was 0.736 ± 0.078. KKKKKNKKENAE showed a protein stability index of 0.742 ± 0.086.
